Reference: US20240116985A1 (published 2024)
Starred links: 1 amine or outer side, 2 acyl side, 3 side chain; linkers in the order of their positions; H or OH if unused. Positions of bridges follow the written chain, without caps; N, C: chain ends. Non-standard residues stand in square brackets, D forms with d. Primed or numbered codes have the meaning given here. *: point of attachment. PyrS2″ = (S)-3-amino-1-((pent-4-en-1-yloxy)carbonyl)pyrrolidine-3-carboxylic acid (stapling residue), C=CCCCOC(=O)N1CC[C@@](N[*:1])(C(=O)[*:2])C1; B5(4) = 2,2-bis(4-pentenyl)glycine = 2-amino-2-(pent-4-en-1-yl)hept-6-enoic acid (stitching residue), C=CCCCC(CCCC=C)(N[*:1])C(=O)[*:2]; TfeGA = (S)-2-amino-3-((carboxymethyl)(2,2,2-trifluoroethyl)amino)propanoic acid, O=C([C@H](CN(CC(=O)[*:3])CC(F)(F)F)N[*:1])[*:2]; PyrS2 = (S)-3-amino-1-((pent-4-en-1-yloxy)carbonyl)pyrrolidine-3-carboxylic acid, C=CCCCOC(=O)N1CC[C@@](N[*:1])(C(=O)[*:2])C1; B5(22) = 2-amino-2-(pent-4-en-1-yl)hept-6-enoic acid (two alkene side chains), C=CCCCC(CCCC=C)(N[*:1])C(=O)[*:2]; B5(3) = 2,2-bis(4-pentenyl)glycine (stitching residue), C=CCCCC(CCCC=C)(N[*:1])C(=O)[*:2]; 2F3MeF = Cc1cccc(C[C@H](N[*:1])C(=O)[*:2])c1F; Phe(3-Cl) = N[C@@H](Cc1cccc(Cl)c1)C(=O)O; Phe(2-Br) = N[C@@H](Cc1ccccc1Br)C(=O)O; Phe(2-CN) = N#Cc1ccccc1C[C@H](N)C(=O)O; Phe(2-Cl) = N[C@@H](Cc1ccccc1Cl)C(=O)O; Bta = N[C@@H](Cc1csc2ccccc12)C(=O)O; αAllylPro = C=CC[C@@]1(C(=O)O)CCCN1; tBuAla = CC(C)(C)C[C@H](N)C(=O)O; 3Thi = N[C@@H](Cc1ccsc1)C(=O)O; S8 = C=CCCCCCC[C@](C)(N)C(=O)O; hLeu = CC(C)CC[C@H](N)C(=O)O; Ms = CS(=O)(=O)*

T1: B-cat-Halo (beta-catenin HaloTag NanoBRET construct expressed in HEK293 cells) (UniProt P35222 1-781)
T1 sequence (looked up): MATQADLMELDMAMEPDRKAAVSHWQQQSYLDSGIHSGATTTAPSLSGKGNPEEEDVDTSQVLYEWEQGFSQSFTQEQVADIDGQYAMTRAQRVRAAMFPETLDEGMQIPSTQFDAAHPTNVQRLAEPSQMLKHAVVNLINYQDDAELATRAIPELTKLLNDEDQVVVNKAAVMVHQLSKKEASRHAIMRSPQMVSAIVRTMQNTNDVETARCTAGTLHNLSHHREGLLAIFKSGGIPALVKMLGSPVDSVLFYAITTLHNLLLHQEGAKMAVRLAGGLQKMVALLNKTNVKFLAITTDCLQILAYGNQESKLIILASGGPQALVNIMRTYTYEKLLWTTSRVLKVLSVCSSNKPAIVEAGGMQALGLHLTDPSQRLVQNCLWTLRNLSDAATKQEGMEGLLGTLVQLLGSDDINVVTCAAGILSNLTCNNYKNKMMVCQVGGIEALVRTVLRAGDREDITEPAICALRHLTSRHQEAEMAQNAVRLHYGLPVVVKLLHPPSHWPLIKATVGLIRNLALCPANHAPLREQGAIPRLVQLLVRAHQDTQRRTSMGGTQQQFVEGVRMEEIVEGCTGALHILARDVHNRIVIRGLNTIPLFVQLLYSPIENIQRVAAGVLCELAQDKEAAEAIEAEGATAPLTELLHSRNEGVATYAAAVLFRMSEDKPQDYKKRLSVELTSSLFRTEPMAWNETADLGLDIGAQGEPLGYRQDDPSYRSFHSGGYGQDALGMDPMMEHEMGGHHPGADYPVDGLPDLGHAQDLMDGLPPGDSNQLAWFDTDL

T2: B-cat-Halo (beta-catenin HaloTag NanoBRET construct expressed in HEK293 cells) (UniProt P35222 1-781, HaloTag NanoBRET 618 Ligand bound to the HaloTag)
T2 sequence (looked up): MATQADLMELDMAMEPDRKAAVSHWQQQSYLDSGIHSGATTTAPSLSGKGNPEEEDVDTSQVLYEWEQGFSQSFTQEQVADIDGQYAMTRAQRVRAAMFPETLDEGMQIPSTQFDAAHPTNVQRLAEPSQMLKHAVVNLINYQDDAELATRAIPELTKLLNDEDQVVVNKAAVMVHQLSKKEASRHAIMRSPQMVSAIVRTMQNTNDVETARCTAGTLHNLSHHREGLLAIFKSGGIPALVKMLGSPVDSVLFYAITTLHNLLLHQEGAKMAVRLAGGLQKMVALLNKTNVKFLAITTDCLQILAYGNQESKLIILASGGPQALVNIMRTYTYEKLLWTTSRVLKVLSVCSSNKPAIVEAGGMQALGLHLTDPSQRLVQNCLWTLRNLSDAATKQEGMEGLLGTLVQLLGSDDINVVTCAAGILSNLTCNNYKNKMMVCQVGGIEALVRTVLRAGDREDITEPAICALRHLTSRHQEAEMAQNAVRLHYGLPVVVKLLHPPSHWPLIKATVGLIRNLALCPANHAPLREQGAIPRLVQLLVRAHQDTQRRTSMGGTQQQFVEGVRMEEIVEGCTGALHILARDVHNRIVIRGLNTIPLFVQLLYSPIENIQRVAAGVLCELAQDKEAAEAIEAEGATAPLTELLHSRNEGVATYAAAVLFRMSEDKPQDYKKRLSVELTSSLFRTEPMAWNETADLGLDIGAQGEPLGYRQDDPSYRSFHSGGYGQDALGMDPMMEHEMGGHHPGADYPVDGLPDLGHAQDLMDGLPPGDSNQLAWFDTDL

T3: B-cat-Halo (beta-catenin HaloTag fusion expressed in HEK293 cells) (UniProt P35222 1-781)
T3 sequence (looked up): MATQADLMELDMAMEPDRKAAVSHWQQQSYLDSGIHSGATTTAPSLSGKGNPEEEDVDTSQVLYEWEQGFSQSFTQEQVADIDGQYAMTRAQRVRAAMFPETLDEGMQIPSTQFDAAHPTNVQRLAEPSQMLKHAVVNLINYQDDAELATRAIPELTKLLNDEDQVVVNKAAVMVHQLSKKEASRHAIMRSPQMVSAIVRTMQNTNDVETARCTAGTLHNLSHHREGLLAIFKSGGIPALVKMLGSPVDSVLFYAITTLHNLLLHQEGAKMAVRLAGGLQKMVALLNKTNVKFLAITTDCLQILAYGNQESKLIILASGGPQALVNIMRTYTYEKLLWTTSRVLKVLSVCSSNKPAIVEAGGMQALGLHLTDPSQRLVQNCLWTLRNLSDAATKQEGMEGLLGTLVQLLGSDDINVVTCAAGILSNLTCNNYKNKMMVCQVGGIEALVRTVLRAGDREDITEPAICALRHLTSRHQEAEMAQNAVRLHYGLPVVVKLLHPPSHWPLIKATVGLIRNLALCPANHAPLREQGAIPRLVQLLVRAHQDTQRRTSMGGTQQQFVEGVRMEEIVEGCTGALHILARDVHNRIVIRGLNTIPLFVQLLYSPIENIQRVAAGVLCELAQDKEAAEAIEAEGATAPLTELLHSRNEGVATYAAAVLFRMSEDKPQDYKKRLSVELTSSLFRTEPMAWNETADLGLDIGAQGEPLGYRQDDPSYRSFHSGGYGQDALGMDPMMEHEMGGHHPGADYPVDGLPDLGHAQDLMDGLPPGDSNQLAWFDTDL


Molecular target: T1, B-cat-Halo (beta-catenin HaloTag …)
Assay: cell-based or functional assay

Ac-[αAllylPro]D[hLeu][B5(4)]DDAAFN[S8]F[Bta]Q-NH2 (staple 1-4, 4-11; not fully specified) [I-548] was tested, and the “NanoBRET Abs IC50” value was 15.6 µM.

Molecular target: T2, B-cat-Halo (beta-catenin HaloTag …)
Assay: cell-based or functional assay

Going from Ac-[αAllylPro]D[tBuAla][B5(22)]D[TfeGA]AAFN[S8][Phe(2-Br)][Bta]Q-NH2 (staple 1-4, 4-11) [I-932] to Ac-[αAllylPro]D[tBuAla][B5(22)]DDAAFN[PyrS2][3Thi][Bta]QK(PropynPEG2)-NH2 (staple 1-4, 4-11) [I-936], the “NanoBRET Abs IC50” value rises from 11.4 µM to 22.2 µM (1.9-fold).

Ac-[αAllylPro]D[tBuAla][B5(3)]D[TfeGA]AAFT[S8][Phe(2-Cl)][Bta]Q-NH2 (staple 1-4, 4-11) [I-930] and Ac-[αAllylPro]D[tBuAla][B5(22)]D[TfeGA]AAFN[S8][2F3MeF][Bta]Q-NH2 (staple 1-4, 4-11) [I-934] are within 1.5-fold of each other in “NanoBRET Abs IC50” value: 13.5 µM for the first, 19.2 µM for the second.

Ac-[αAllylPro]D[tBuAla][B5(22)]D[TfeGA]AAFN[S8][Phe(3-Cl)][Bta]Q-NH2 (staple 1-4, 4-11) [I-933] and Ac-[αAllylPro]D[tBuAla][B5(22)]DDAAFN[PyrS2][3Thi][Bta]QK(PropynPEG1)-NH2 (staple 1-4, 4-11) [I-935] are within 1.5-fold of each other in “NanoBRET Abs IC50” value: 22.2 µM for the first, 33.1 µM for the second.

Ac-[αAllylPro]D[tBuAla][B5(22)]DDAAFN[PyrS2][3Thi][Bta]QK-NH2 (staple 1-4, 4-11) [I-939] was tested, and the “NanoBRET Abs IC50” value was 25.1 µM.

Molecular target: T3, B-cat-Halo (beta-catenin HaloTag fusion …)
Assay: cell-based or functional assay

Ms-[αAllylPro]D[tBuAla][B5(3)]DDAAFN[PyrS2″][3Thi][Bta]Q-NH2 (staple 1-4, 4-11) [MeSO2-PL3-Asp-Npg-B5-Asp-Asp-Ala-Ala-Phe-Asn-PyrS2-3Thi-BztA-Gln-NH2] and Ac-[αAllylPro]N[tBuAla][B5(3)]DDAAFL[PyrS2″][3Thi][Bta]Q-NH2 (staple 1-4, 4-11) [Ac-PL3-Asn-Npg-B5-Asp-Asp-Ala-Ala-Phe-Leu-PyrS2-3Thi-BztA-Gln-NH2] cannot be ordered by “NanoBRET Abs IC50” value: greater than 20 µM for the first, 23.4 µM for the second.

Going from Ms-[αAllylPro]D[tBuAla][B5(3)]D[TfeGA]AAFN[PyrS2″][3Thi][Bta]Q-NH2 (staple 1-4, 4-11) [MeSO2-PL3-Asp-Npg-B5-Asp-TfeGA-Ala-Ala-Phe-Asn-PyrS2-3Thi-BztA-Gln-NH2] to Ac-[αAllylPro]D[tBuAla][B5(3)]NDAAFL[PyrS2″][3Thi][Bta]Q-NH2 (staple 1-4, 4-11) [Ac-PL3-Asp-Npg-B5-Asn-Asp-Ala-Ala-Phe-Leu-PyrS2-3Thi-BztA-Gln-NH2], the “NanoBRET Abs IC50” value falls from greater than 20 µM to 7.5 µM.

Going from Ac-[αAllylPro]N[tBuAla][B5(3)]DDAAFN[PyrS2″][3Thi][Bta]Q-NH2 (staple 1-4, 4-11) [Ac-PL3-Asn-Npg-B5-Asp-Asp-Ala-Ala-Phe-Asn-PyrS2-3Thi-BztA-Gln-NH2] to Ac-[αAllylPro]D[tBuAla][B5(3)]NDAAFN[PyrS2″][3Thi][Bta]Q-NH2 (staple 1-4, 4-11) [Ac-PL3-Asp-Npg-B5-Asn-Asp-Ala-Ala-Phe-Asn-PyrS2-3Thi-BztA-Gln-NH2], the “NanoBRET Abs IC50” value rises from 17.3 µM to 27.8 µM (1.6-fold).

Ac-[αAllylPro]D[tBuAla][B5(3)]DDAAFL[PyrS2″][Phe(2-CN)][Bta]Q-NH2 (staple 1-4, 4-11) [Ac-PL3-Asp-Npg-B5-Asp-Asp-Ala-Ala-Phe-Leu-PyrS2-2CNF-BztA-Gln-NH2] was tested, and the “NanoBRET Abs IC50” value was 10 µM.
